Experimental data published in patent publication US20210340238A1, “TGFß1 INHIBITORS AND USE THEREOF” (Scholar Rock, Inc., priority 2018, published 2021).
Entries after “also recorded” stand apart in the source; their conditions may differ.

Key:
[1] = tested on: fibrosis-associated genes (Col1a1, Col3a1, Fn1, Lox, Lox/2, Acta2, Mmp2, Itga11); test: Unilateral ureteral obstruction (UUO) model of acute kidney fibrosis, qPCR of fibrosis-associated genes; format: in vivo, mouse; conditions: i.p. days −1 and 4, kidney qPCR day 5
Procedure: Inhibition of acute fibrosis by anti-TGFβ1 antibodies was tested in the unilateral ureteral obstruction (UUO) model of acute kidney fibrosis. In this model, fibrosis is induced in male mice by permanent surgical ligation of the left ureter on study day 0.
Kidneys were collected at the end of study, on day 5 after surgery, and RNA was harvested from these tissues. The degree of fibrosis induction was subsequently assessed by quantitative polymerase chain reaction (qPCR) for a panel of fibrosis-associated genes, including Collagen I (Col1a1), Collagen III (Col3a1), Fibronectin 1 (Fn1), Lysyl Oxidase (Lox), Lysyl Oxidase-like 2 (Lox/2), Smooth muscle actin (Acta2), Matrix metalloprotease (Mmp2), and Integrin alpha 11 (Itga11) (Rolfe, Irvine, Grobbelaar, & Linge, 2007) (Tamaki et al., 1994) (Bansal et al., 2017)(Leaf& Duffield, 2016).

[2] = tested on: Matrix-associated proTGFβ1 vs Cell-associated proTGFβ1; test: MSD-SET binding, matrix vs cell bias (G/D); design: species or system human; conditions: ratio of cell average KD to ECM average KD
Source text: Column (A) of the table provides monoclonal antibodies with discrete amino acid sequences. […] Columns (B), (C), (E) and (F) provide affinities of each of the listed antibodies, measured in KD, towards the antigen complex as indicated, respectively. […] Similarly, Average KD values calculated from (E) and (F) are shown in the corresponding column (G), which collectively represents affinities of the antibodies to cell-surface or cell-associated proTGF complexes. Finally, relative ratios between the average KD values from columns (D) and (G) are expressed as fold bias” in column (H). Thus, the greater the numerical of column (H) is, the greater bias exists for the particular antibody, when comparing binding preferences of the antibody for matrix-associated complexes to cell-surface complexes. This is one way of quantitatively representing and comparing inherent bias of antibodies to their target complexes. Such analyses may be useful in guiding the selection process for a candidate antibody for particular therapeutic use. Select antibodies of the present disclosure, as measured by MSD-SET, show context-bias (i.e., greater than five-fold bias) or unbias (i.e., less than 5-fold bias) toward matrix-associated complexes over cell-associated complexes. […] Without being bound by a particular theory, the differences in the kinetics of the assays and/or differences in the nature of recombinant proteins may account for the noticeable differences seen in Ab19 binding to hGARP complexes observed in the above Octet assay (see Table 6) compared to the below MSD-SET assay (see Table 7 below). For example, the Octet assay measures kinetic on and off rates, while the MSD-SET assay measures binding at equilibrium. In addition, the recombinant antibodies used in the Octet assay were expressed as IgG1 antibodies in yeast, while the antibodies used in the MSD assay were expressed as IgG4 antibodies in mammalian cells.

B1: Ab2: isoform-selective inhibitor of TGFβ1 activation; VH SEQ ID NO: 13, VL SEQ ID NO: 15; human IgG4 (antibody, V domains shown)
VH: EVQLLESGGGLVQPGGSLRLSCAASGFTFADYAMTWVRQAPGKGLEWVSAISGSGAATYFADSVKGRFTISRDNSKNTLYLQMNSLRAEDTAVYYCARVSSGHWDFDYWGQGTLVTVSS
VL: DIQLTQSPSSLSASVGDRVTITCRASQSISSYLNWYQQKPGKAPKLLIYAASNLQSGVPSRFSGSGSGTDFTLTISSLQPEDFATYYCQQTYTVPLTFGGGTKVEIK
modifications: human IgG4 constant regions
[1]; 3 mg/kg/wk
  Fibrosis-associated gene expression in UUO kidney vs UUO+IgG: trend towards reduced Col3a1 expression, though this effect does not reach statistical significance; also recorded: reduction of both Fn1 and, particularly, Lox/2 (P=0.06), though suppression of neither gene is statistically significant; also recorded: Col1a1 and Lox expression were also reduced
[1]; 10 mg/kg/wk
  Fibrosis-associated gene expression in UUO kidney vs UUO+IgG: suppressed fibrotic gene induction by UUO; also recorded: highly significant (P<0.005 vs UUO+IgG) inhibition of both Fn1 and Lox/2; also recorded: all genes examined except Mmp2 showed a statistically significant change in expression
[2]
  (H) G/D (fold bias): 8.66 fold
